This data set can be described thus: yeast display, Sf9 membrane polyspecificity reagent, FACS + sequencing; frameworks hold sequencing errors. The method in brief: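 After 36–48 hours of galactose induction, yeast (Saccharomyces cerevisiae BJ5465) displaying a synthetic nanobody library were stained at 4 °C for 1 hour with 10% biotinylated, detergent-solubilized Sf9 membrane reagent. Streptavidin microbeads enriched the stained cells before FACS sorting into low and high (top ~1%) gates on anti-HA and streptavidin fluorescence. Each clone's polyreactivity label reflects its gate of origin.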
On to “QVQLVESGGGLVQAGGSLRLSCAASGRIFFTNAMGWYRQAPGKERELVATISSSDGSTYYADSVKGRFTISRDNAKNTVYLQMNSLNPEDTAVYYCAALYSFRGSRQYTYKYYYWGQGTQVTVSS”, for which the “polyreactivity (PSR sort gate)” value is listed as “high polyreactivity”.

Regarding “QVQLVESGGGLVQAGGSLRLSCAASGRIFFTYAMGWSRQAPGKERELVAAISWSGGGTYYADSVKGRFTISRDNAKNTVYLQMNSLKPEDTAVYYCAADNTILFDYWGQGTQVTVSS”, the “polyreactivity (PSR sort gate)” value is “low polyreactivity”. Turning to “QVQLVESGGGLVQAGGSLRLSCAASGRIFFVNAMGWYRQAPGKERELVAAISRGGTTYYADSVKGRFTISRDNAKNTVYLQMNSLKPEDTAVYYCNVAYTPSFYRYDYWGQGTQVTVSS”, the “polyreactivity (PSR sort gate)” value is “low polyreactivity”. In the case of “QVQLVESGGGLVQAGGSLRLSCAASGRIFFVNAMGWYRQAPGKERELVAAISSGGSTNYADSVKGRFTISRDNAKNTVYLQMNSLKPEDTAVYYCASSHYRYGTQGYDYWGQGTQVTVSS”, the “polyreactivity (PSR sort gate)” value was “low polyreactivity”. Regarding “QVQLVESGGGLVQAGGSLRLSCAASGRIFFVYAMGWYRQAPGKERELVAAITSSGGGTYYADSVKGRFTISRDNAKNTVYLQMNSLKPEDTAVYYCATRYPYRPGYEYWGQGTQVTVSS”, the “polyreactivity (PSR sort gate)” value was “low polyreactivity”. As to “QVQLVESGGGLVQAGGSLRLSCAASGRIFFVYAMGWYRQAPGKERELVAGIRSSGGSTYYADSVKGRFTISRDNAKKTVYLQMNSLKPEDTAVYYCAARRVGYPSPYSTYGMYYWGQGTQVTVSS”, the “polyreactivity (PSR sort gate)” value is “high polyreactivity”. Next, “QVQLVESGGGLVQAGGSLRLSCAASGRIFFVYAMGWYRQAPGKERELVAGIRSSGGSTYYADSVKGRFTISRDNAKNTVYLQMNSLKPEDTAVYYCAARRVGYPSPYSTYGMYYWGQGTQVTVSS”: “high polyreactivity”; “QVQLVESGGGLVQAGGSLRLSCAASGRIFFYNDMGCYRQAPGKERELVASISSGTSTYYADSVKGRFTISRDNAKNTVYLQMNSLKPEDTAVYYCATGRPWHYSSATYDYWGQGTQVTVSS”: “low polyreactivity”. With “QVQLVESGGGLVQAGGSLRLSCAASGRIFFYNGMGWYRQAPGKERELVAAINRSGGSTYYADSVKGRFTISRDNAKNTVYLQMNSLKPVDTAVYYCNAASFTVPMDFWGQGTQVTVSS”, the “polyreactivity (PSR sort gate)” value is “low polyreactivity”.

In the case of “QVQLVESGGGLVQAGGSLRLSCAASGRIFFYNTKGWYRQAPGKERELVAVISSSDGSTYADSVKGRFTISRDNAKNTVYLQMNSLKPEDTAVYYCNAGWTRYVPYVRMDYWGHGTQVTVSS”, the “polyreactivity (PSR sort gate)” value was “high polyreactivity”. On to “QVQLVESGGGLVQAGGSLRLSCAASGRIFFYYAMGWYRQAPGKERELVAAISSGGGSTYYADSVKGRFTISRDNAKNTVYLQMNSLKPEDTAVYYCAARTYRRRYLGWSQYVGPYDYWGQVTQVTVSS”, for which the “polyreactivity (PSR sort gate)” value is given as “high polyreactivity”. For “QVQLVESGGGLVQAGGSLRLSCAASGRIFGAYAKGWYRQAPGTERELVAAISGSGGSTSYADSVKGRFTISRDNAKNTVYLQMNSLKPEDTAVYYCNAVSYVDIWDDRRYYYWVQGTQVTVSS” the value was “low polyreactivity”. “QVQLVESGGGLVQAGGSLRLSCAASGRIFGAYAMGWYRQAPGKERELVAAITQSGGSTFYADSVKGRFTISRDNAKNTVYLQMNSLKPEDTAVYYWGQGTQVTVSS”: the “polyreactivity (PSR sort gate)” value is reported as “low polyreactivity”.

With “QVQLVESGGGLVQAGGSLRLSCAASGRIFGAYAMGWYRQAPWKERELVAAITSRGGNTYYADSVKGRFTISRDNAKNTVYLQMNSLKPEDTAVYYCAARHDKRRQYYVGQSAFDYWGQGTQVTVSS”, the “polyreactivity (PSR sort gate)” value is “low polyreactivity”. With “QVQLVESGGGLVQAGGSLRLSCAASGRIFGAYTMGWYRQAPGKEREFVAAITQSGGSTYYADSVKGRFTISRDNAKNTVYLQMNSLKPEDTAVYYCAATRYVLVGWRYAVWYDYWGQGTQVTVSS”, the “polyreactivity (PSR sort gate)” value is recorded as “high polyreactivity”.

Consider “QVQLVESGGGLVQAGGSLRLSCAASGRIFGDNAMGWSRQAPGKEWELVAAITVNAGSTHYAASVKGRFTISRDNAKNTVYLQMNSLKPEDTAVYYCAKQTAPVTGVGPYFYWGQGTQVTVSS”, for which the “polyreactivity (PSR sort gate)” value was “low polyreactivity”.

“QVQLVESGGGLVQAGGSLRLSCAASGRIFGDYAMGWYRQAPGKERELVADITWSGGSTYYADSVKGRFTISRDNAKNTVYLQMNSLKPEDTAVYYCNADYDGGYYGDLSLYDYWGQGSQVTVSS”: the “polyreactivity (PSR sort gate)” value is on record as “low polyreactivity”. For “QVQLVESGGGLVQAGGSLRLSCAASGRIFGDYGMGWYRQAPGKERELVAAITDRGGTTYYADSVKGRFTISRDNAKNTVFLQMNSLKPEDTAVYYCNARQSDIFDYDYWGKGTQVTVSS” the value was “low polyreactivity”; for “QVQLVESGGGLVQAGGSLRLSCAASGRIFGENALGWYRQAPGKEREFVAVISISDASTYYADSVKGRFTISRDNAKNTVYLQMISLKPEDTAVYYCAAELTDFLYVASDYWGQGTQVTVSS”, “low polyreactivity”. For “QVQLVESGGGLVQAGGSLRLSCAASGRIFGENAMGWYRQAPGKERELVAAITWSGTSTYYADSVKGRFTISRDNAKNTVYLQMNSLKPEDTAVDYCAASATLFSSRGKRYYWGQGTQVTVSS” the value was “low polyreactivity”; for “QVQLVESGGGLVQAGGSLRLSCAASGRIFGEYAMGWYRQAPGKERELVAAISGGGSTYYADSVKGRFTISRDNAKNTVYLQMNSLKPEETAVYYCAVYSVYHEYDYWGHGTQVTVSS”, “low polyreactivity”. Next, “QVQLVESGGGLVQAGGSLRLSCAASGRIFGFYAMGWSRQAPGKERELVPGITGSGDGTYADSVKGRFTISRDNAKNTVYLQMNSLKPEDTAVYYCAADYAVGKHWRYGTYRGHYWGQGTQVTVSS”: “low polyreactivity”; “QVQLVESGGGLVQAGGSLRLSCAASGRIFGGNAMGWYRPAPGKERELVAAISKRGGSTYYADSVKGRFTISRDNAKNTVYLQMNSLKPEDSAVYYCAATAYADQGLDYGYWGQGTQVTVSS”: “high polyreactivity”. Consider “QVQLVESGGGLVQAGGSLRLSCAASGRIFGGNAMGWYRQAPGKERELVAAISRNGGRTYYADSVKGRFTISRDNEKNTVYLQKNSLKPEDTAFYYCNAGYKEPHYYYWGQGTQVTVSS”, for which the “polyreactivity (PSR sort gate)” value is listed as “high polyreactivity”.

As for “QVQLVESGGGLVQAGGSLRLSCAASGRIFGGNAMGWYRQAPGKERELVAAITTRGGSTYADSVKGRFTISRDNAKNTVYLQMNSLKPEDTAVYYCNKRYVIRRRGYDYWGQGTQVTVSS”, the “polyreactivity (PSR sort gate)” value is recorded as “low polyreactivity”.

On to “QVQLVESGGGLVQAGGSLRLSCAASGRIFGGNTMGWYRQAPGKERELVAAITSGGSTTYADSVKGRFTISRDNAKNTVYLHMNSLKPEDSEVYYCAARYVYPHQWTPYIRPYDYWGQGTQVTVSS”, for which the “polyreactivity (PSR sort gate)” value is listed as “low polyreactivity”. For “QVQLVESGGGLVQAGGSLRLSCAASGRIFGGNVMGWNRQATWKERELVAFITRGTRTNYADSVKGRFTISRDNAKNTVYLQMNSLKPEDNAVFYCAADSRNSRQHTSYNSLNYWGQGTQVTVSS” the value was “high polyreactivity”; for “QVQLVESGGGLVQAGGSLRLSCAASGRIFGGYAMGWYRQAPGKERELVAAISSRGGSTYYADSVKGRFTISRDNAKNTVYLQMNSLNPEDTAVYYCARTKYGRYRYGEYDYWGQGTQVTVSS”, “high polyreactivity”. Regarding “QVQLVESGGGLVQAGGSLRLSCAASGRIFGGYAMGWYRQAPGKERELVAAISWRGGTTYYADSVKGRFTISRDNAKNTVYLQMNSLKQEDTAVYYCNADVVRYRHWHRGDYWGQGTQVTVSS”, the “polyreactivity (PSR sort gate)” value is given as “low polyreactivity”. As for “QVQLVESGGGLVQAGGSLRLSCAASGRIFGGYAMGWYRQAPGKERELVAAITSAGGTNYADSVKGRFTISRDNAKNTVYLQMNSLKPEDTAVYYCAALRDRDITVYYDTGRMYYWGQGTQVTVSS”, the “polyreactivity (PSR sort gate)” value is recorded as “low polyreactivity”. For “QVQLVESGGGLVQAGGSLRLSCAASGRIFGGYAMGWYRQAPGKERELVATITANGGRTRYADSVKGRFTISRDNAKNTVYLQMNSLKPEDTAVYYCARVYYSSSGYGYWGQGTQVTVSS” the value was “high polyreactivity”; for “QVQLVESGGGLVQAGGSLRLSCAASGRIFGGYAMGWYRQAPGKERELVAVITDGGSTNYADSVKGRFTISRDNAKNTVYLQMNSLKPEDTAVYYCAADDRIYPRGYDKMDYWGQGTQVTVSS”, “low polyreactivity”; for “QVQLVESGGGLVQAGGSLRLSCAASGRIFGGYTMGSYRQAPGKERELVAAITRSDGSTTYADSVKGRFTISRDNAKNTVSLQMNSMKPEDTAVYYCAAPRASGYYWGQCTQVTVSS”, “high polyreactivity”. With “QVQLVESGGGLVQAGGSLRLSCAASGRIFGGYTMGWYRQAPGKEREFVATISRSSGSTYYADSVKGRFTISRDNAKNTVYLQMNSLKPEDTAVYYCAAVYLYATGYDYWGQGTQVTVSS”, the “polyreactivity (PSR sort gate)” value was “high polyreactivity”.

Turning to “QVQLVESGGGLVQAGGSLRLSCAASGRIFGGYTMGWYRQAPGNERELVAAINSGGSTYYADSVKGRFTISRDNAKITVYLQMNSLKPEDTAVYYCAKVRSYFGKYGYGYWGQGTQVTVSS”, the “polyreactivity (PSR sort gate)” value is listed as “high polyreactivity”.

As for “QVQLVESGGGLVQAGGSLRLSCAASGRIFGGYVMGWYRQAPGKERELVAAISRRGGSTYYADSVKGRFTISRDNAKNTVYLQMNSLKPEDTAVYYCNVASFSYSYKFDYWGQGTQVTVSS”, the “polyreactivity (PSR sort gate)” value is reported as “high polyreactivity”. Next, “QVQLVESGGGLVQAGGSLRLSCAASGRIFGHYAMGWYRQAPGKETELVASISWRGGRTYYADSVKGRFTISRDNAKNTVYLQMNSLKPEDTAVYYCAARVNYKPYADYYYWGQGTQVTVSS”: “high polyreactivity”. As for “QVQLVESGGGLVQAGGSLRLSCAASGRIFGINARGWYRPAPGKERELVAAINWSGGSTYYADSVKGRFTISRDNAKNTVYLHMNSLKPEDTAVYYCAADFYRRYYRYGYWGQGTQVTVSS”, the “polyreactivity (PSR sort gate)” value was “high polyreactivity”. Next, “QVQLVESGGGLVQAGGSLRLSCAASGRIFGINVMGWYRQAPGKERELVARITGRGGRTYYADSVKGRFTISRDNAKNTVYLQMNSLKPEDTAVYYCAADARYEAYDYWGQGTQVTVSS”: “high polyreactivity”; “QVQLVESGGGLVQAGGSLRLSCAASGRIFGIYAMGWYRQAPGKERELVASITGSSGSTNYADSVKGRFTISRDNAKNTVYLQMNSLKPEDTAVYYCAADIPSYYWWRAYDYWGQGTQVTVSS”: “low polyreactivity”.

These data come from the nanobody polyreactivity screen of Harvey et al. (2022).
